From the DeepSol protein solubility set

Test: soluble on expression in E. coli; label from the status in PepcDB or PDB records

Sequence | soluble on expression in E. coli
MLRTAGRDGLCRLSTYLEELEAVELKKFKLYLGTATELGEGKIPWGSMEKAGPLEMAQLLITHFGPEEAWRLALSTFERINRKDLWERGQREDLVRDTPPGGPSSLGNQSTCLLEVSLVTPRKDPQETYRDYVRRKFRLMEDRNARLGECVNLSHRYTRLLLVKEHSNPMQVQQQLLDTGRGHARTVGHQASPIKIETLFEPDEERPEPPRTVVMQGAAGIGKSMLAHKVMLDWADGKLFQGRFDYLFYINCREMNQSATECSMQDLIFSCWPEPSAPLQELIRVPERLLFIIDGFDELKPSFHDPQGPWCLCWEEKRPTELLLNSLIRKKLLPELSLLITTRPTALEKLHRLLEHPRHVEILGFSEAERKEYFYKYFHNAEQAGQVFNYVRDNEPLFTMCFVPLVCWVVCTCLQQQLEGGGLLRQTSRTTTAVYMLYLLSLMQPKPGAPRLQPPPNQRGLCSLAADGLWNQKILFEEQDLRKHGLDGEDVSAFLNMNIFQKDINCERYYSFIHLSFQEFFAAMYYILDEGEGGAGPDQDVTRLLTEYAFSERSFLALTSRFLFGLLNEETRSHLEKSLCWKVSPHIKMDLLQWIQSKAQSDGSTLQQGSLEFFSCLYEIQEEEFIQQALSHFQVIVVSNIASKMEHMVSSFCLKRCRSAQVLHLYGATYSADGEDRARCSAGAHTLLVQLPERTVLLDAYSEHLAAALCTNPNLIELSLYRNALGSRGVKLLCQGLRHPNCKLQNLRLKRCRISSSACEDLSAALIANKNLTRMDLSGNGVGFPGMMLLCEGLRHPQCRLQMIQLRKCQLESGACQEMASVLGTNPHLVELDLTGNALEDLGLRLLCQGLRHPVCRLRTLWLKICRLTAAACDELASTLSVNQSLRELDLSLNELGDLGVLLLCEGLRHPTCKLQTLRLGICRLGSAACEGLSVVLQANHNLRELDLSFNDLGDWGLWLLAEGLQHPACRLQKLWLDSCGLTAKACENLYFTLGINQTLTDLYLTNNALGDTGVRLLCKRLSHPGCKLRVLWLFGMDLNKMTHSRLAALRVTKPYLDIGC | soluble
MSLSNQEPIANYKFNYKTTANKVMKNINLSGKTIIITGGYSGIGLEMTKQLSRAGAKIIIPARRMEVAKKNLSKIKNIDILPLDLTNPESIHQFAESFLQNNSKLDILINSAGLMYLPLKRDSRGIEYHFATNHLGHYQLTLELLPALKNAKISRVINLSSRAQQMTPLLEDWNFEKIENYNPQIGYQQSKTANVLFSIKLDELGKKYGIRSFAVHPGMIPMTNIGRQNSPITPWLRYLADYFKLIHIPVFFNALKSGFDRSKYRYLKTIAQGAATPLWASTSPDLEGKGGLYCEDLNIARLMTSEEANNFSGGLRPHAIDHNDADRLWQISKNITGLDEGHHHHHH | not soluble
MKGRDVVLGLLMQKELSGYDIKIVFEDVFTHFFDGSFGMIYPTLRQLENEGKIKKEVVMQEGKPNKKMYFITDEGREEFYQYMQTPVEKDVLRSDFLMRMYFGNYSDDVTIKKWIKDEIERKEAYIADLRLKYEKWRVGITFVEEISLDVGIASYSAQVETLKKKLEELEAKENNKTEE | soluble
MELDDFDPEDKEILSWDINDVKLPQNVKTTDWFQEWPDSYVKHIYSSDDRNAQRHLSSWAMRNTNNHNSRILKKSCLGVVVCSRDCSTEEGRKIYLRPAICDKARQKQQRKSCPNCNGPLKLIPCRGHGGFPVTNFWRHDGRFIFFQSKGEHDHPRPETKLEAEARRAMKKVHM | soluble
MKIPASSPQDTTNNNNNTNSTDSNHLSMDEHVMRSMDWDSIMKELELDDDSAPNSLKTGFTTTTTDSTILPLYAVDSNLPGFPDQIQPSDFESSSDVYPGQNQTTGYGFNSLDSVDNGGFDFIEDLIRVVDCVESDELQLAQVVLSRLNQRLRSPAGRPLQRAAFYFKEALGSFLTGSNRNPIRLSSWSEIVQRIRAIKEYSGISPIPLFSHFTANQAILDSLSSQSSSPFVHVVDFEIGFGGQYASLMREITEKSVSGGFLRVTAVVAEECAVETRLVKENLTQFAAEMKIRFQIEFVLMKTFEMLSFKAIRFVEGERTVVLISPAIFRRLSGITDFVNNLRRVSPKVVVFVDSEGWTEIAGSGSFRREFVSALEFYTMVLESLDAAAPPGDLVKKIVEAFVLRPKISAAVETAADRRHTGEMTWREAFCAAGMRPIQQSQFADFQAECLLEKAQVRGFHVAKRQGELVLCWHGRALVATSAWRF | soluble
MMKKIKILSLLVCLIALFTACHDEEDKTNYGSRTVLVYIAGDNSLSRFASEDLNEMIEGMQSVDDNHNNLLVYMDKGSNPKLIRLRKDKDVVVQDVIATYDAQNSVDVDVMKNVFTTAFSHYPADSYGVVFWSHGDGWLPYNNPSTRWWGQDTGNGDNRMNIPDLNEALSVAPHFDFILFDACYMQSVEVVYQLRNRADYFIGSPTEIPGPGAPYEVVVPALFAVNSPAVSIAENYYSVYAKKYNSTGAGISNENWTGGVSISVIKSSELSALAAATRDVLQTAVSMQQSHNIDISSILCYDPLRENNYHDLMGLMQSIQGNSQAFNHYKEMYKNAVIWKNTTDNNYCTYSSGYGKMVSMDGFEGVSTYILRENNSSQEKYYRQFVEWYSAADWDSVDWLEHHHHHH | not soluble
SNAMPKRSKEDTEITIQKIMDAVVDQLLRLGYDKMSYTTLSQQTGVSRTGISHHFPKKTDFTAALDGRIFKMFIEHLEFEKGLDAFSQSWIKALEDSEFLAILRLLFHHIVTSESAHEFAANGIDRLYKMVESQFGSGGDKELEWLIGRSLIQMSK | soluble
AHHHHHHGSKTFLTEQQIKVLMLRAKGYKQSEIAKILGTSRANVSILEKRAMEKIEKARNTLLLWEQINSKVIVEIKAGEDIFSIPEKFFKKADKVGVKVPYSTAEIITFLVEHAPVEDRLAKRDFVLFLDSKNKLRIGDCLVIEEIKED | soluble
MIGGGIGISFRNEFFNPQTPVNIPVQGFSNGARLRLVLLPTSADSRFHINLRTPDDIVLHFNARFDEGAVVNNSTSGGGWQSEDRHANPFQQNKIYTLEFVSNGGIISIFVNGAHFADFVERTPSHGVHLIEIEGGVHVHSAHVSH | soluble
MAHHHHHHMSARKFAGEYVSRHLDGLTVLASLADRPAAAKPVICTHNGSFHCDEAMACGLLRHVPEYREAVILRTRDPKQIDACDIVVDVGAIYDADTNRYDHHQASFHGTMTTPKKAYKTRLSSAGLVYKHFGRQIICEYVEAVLQPSSPARAAVLSMTSWSESRTGLSEAELDVLEDALYAHFVEQVDGIDNGVECWGLADPAVGTLVPNYTQSTSLSQRIGQLQAYWNEPENGDVVAENANFAVAVEMAVTEFFKALTYLSFSWLPARSIVEAAFQRRHEFDESGKIMVFKGVKACPWKDHLLELEAESNCLGAVLYVVFSDGKGWRVQAVPKTSTSFENRKPLPYRGLRDDALSAACGIEGGVFVHVSGFIGGMKTFDGAMALAKQALVVVN | soluble
GPGSMGTDKVMSEKLVLEKTKVKSLSDVQRLDMWGEGLTDISLVAKLPRLEVLALAANNVSSLKALQGCELLQELYLRKNKVANLREVTALRVLPTLSVLWLRDNPCAQHPYYREFVLHCCPGLRQLDGVEVTADERKAAAKRLTTKTLDEILGRSACADAASSPRPKKSSGAGSSPAKATDVTPSSTPGGVSDSTATIEERNASSRSVLFTTVAAQRAMLLSIVSLLSELTVESLELLQREVQERVEKQKEKLTKYVQENSQ | soluble
AHHHHHHGSRIVVIGSGTAGSNFALFMRKLDRKAEITVIGKEETMQYSPCALPHVISGVIEKPEDVIVFPNEFYEKQRIKLLLNTEAKKIDRERKVVVTDKGEIPYDKLVIATGSKAFVPPIKGVENEGVFTLKSLEDVRKIKEFIKKRNPKNAVVIGAGLIGLEGAEAFAKLGMKVTVVELLEHLLPTMLDKDIAKIVEENMRKYGVDFKFGVGVDEIIGDPVEKVKVGEEEIDADIVLVATGVRANVELAKEAGLEVNRGIVVNEYLQTSDPDIYAIGDCAEVIDAVTGKRTLSQLGTSAVRMAKVAAENIAGRNVKFRPVFNTAITEIFDLEIGAFGITEERAKKEEIEVVVGKFRGSTKPEYYPGGKPIVVKLIFRKEDRRLIGAQIVGGERVWGRIMTLSALAQKGATVEDVVYLETAYAPPISPTIDPITIAAEMAMRKL | soluble
MSLEISASIIDISENALEQLGVDWRLHNSRFDLQTGNGTNTMLNNPGSLDSVATTAGAAAAIAATPAGGVLSAVIGGGSRYLMARISALQQTDQARITANPKVATLDNTEAVMDNRQNFYVPVAGYQSADLYAISAGVSLRVLPMVVMDGGTVRIRMNVHIEDGQITSQQVGNLPITSQSEIDTQALINEGDSLLIAGYSVEQQSKSVDAVPGLSKIPLVGALFRTDQTTGKRFQRMFLVTPRVITEGHHHHHH | not soluble
TPTDKHGGSDTRCPLMVKILDAVKGTPAGSVALKVSQKTADGGWTQIATGVTDATGEIHNLITEQQFPAGVYRVEFDTKAYWTNQGSTPFHEVAEVVFDAHPEGHRHYTLALLLSPFSYTTTAVVSSVHE | soluble
MSNSVTNFEMSSVLPGKKPCQGKNNESQVVQTTPIKKHSVTFKNQSSLGVIDHYARLTNKSHSSVIAEVVDLAIPILEKCNRHNWSINEIKNDLLKFSIKESINRSRGKTEVTLEEYCSLIWKTNIMSPLKIPIADYFQLNANDEFMGKDEKTVIRERLSSLRENYDMEKAIYIYNQRHFDVKHQSVSGYSNIILIHRTTFEGYYFDAGQALLLSTSQLIIFGINEVLRRKGIVMPYPVVCWIDIYHVNEMVVMLPVLRKTDVSNRVNVPDDIIINPYSQESRT | soluble
MGCGLRKLEDPDESSPGKIFSTLKRPQVETKTEFAYEYALLDFTLQASTNPDVIKINSVLDIVAKVEDYYLKGYVVGAIHPVIQPVGQRKHLPASHLYRAVLSRLKLSPKHSAAGGQRRARLVMEECPLTCEAQANDAAKELMDKINAAAKRGMKFVGLVSQCYLPSMHCNGASHDGVAESGLHVRQDSQDNCKGWNEGALGGHLSESGVEEEPQHESGQHQTERNSSPSYANPKRGEAPDGKLYMVFNAFEEDAASWAYQEGVLSMKVTRKGAVISALDANWLELTTFYYKQGFSLIDSFVCWETPKVAKLEAFQLSVSDKLPKGKQKYSFQSLSGIPASGLA | soluble
MGSDKIHHHHHHMISMTQNNVEKWGTYEITLKGKAEGNPFTDVEIKAVFTSEAGDSFEVEGFYDGEDTFKIRFMPNRTGLWKYEVRSDIKDLDGMKGEFLCVDPSEGNHGPVRVCNTYHFCYEDGTPYHPFGTTLYAWVHQREELIQQTLESLRNSPFNKVRMCVFPKYYAYNREEPPMLPMSWREEDGRYQVEFNVKFFQHFERLVKELMDMGIEADVILFHPYDKWGFCSMPEEVDKAYLRYLIARISSYRNVWWSMANEYDLIKPQKDWDGYFHFIVEKDPYNHLRSVHQCFKFYDHTKPWITHASIQWQGSLRSWSGEPEIDIGINLIPKWREMYKKPVIIDECGYEGNIEYGWGNLPPQEMMNRFWEGVTSGGYVTHGETYYSEDEVLWWSKGGRLKGESPKRIAFLRTIIEEAPPFLKPIKLDPMMDWDVHCIGKEGEYYLIYFDINRPVKRTLKLPEGKYRVDLVDCWETEIHSLGIFQGQVVIRLPGKSYVALRIQKMENNDDWIILREDAKL | not soluble
MSLSTKNHFIFPTYVQMYPYSKDRPFLKQVREKLRYYGYKWLYQKQCSQLVDFLNTETQWQSLFTQDYYRTNTILTTFCDKRFSASERLTAITENLRLAEEKMGRSLCQQLLDQQHIVLTQLTEDLRLSLSINHIDPFEGYFSINIRNQNNERVYDSSFTFLSPNKLLIASIQGPSSDNAQELVKQATKALHGMRPMFMLVNGFKMLAEKWQCELVGIPHKAQGKYRLSARSKILFNYDEFWQENQGEYRHNYWQLPLHIERKQLEDIASKKRSMYRKRYEMLDQMALDIQQLEGHHHHHH | soluble
MQLLTEKDRPEEEKREETWRRLKRDIASSANTIHEIDTGKARGYNRALFVSSIFNKVSTFAGHGDVEIVQKAIDFISEYNAGIKKPVITPRHRFFQLAETASRMRDKLKETQELENREVTFEGGILVWNYQESRLQVFFNKIPEESKRRELKSSGFHWSPRNRAWQRQLNPNAVSAAKRILNL | not soluble
